Laboratory results taken from patent US20200199241A1 (Chugai, published 2020).

The binders below were run against T1, soluble human FcRn complexed with β2-microglobulin (human, UniProt P61769 21-119, limits assumed) (assay: Biacore SPR, pH 7.0;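 note: test antibodies captured on a Protein L chip with human FcRn flowed over as analyte, KD obtained as the ratio of dissociation to association rate constants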).
T1 construct: also called hFcRn

Binder | Kd [nM]
IgG1-F1023 (antibody, EU numbering; copies: 2 + 2) heavy: QVQLQESGPGLVKPSETLSLTCAVSGHSISHDHAWSWVRQPPGEGLEWIGFISYSGITNYNPSLQGRVTISRDNSKNTLYLQMNSLRAEDTAVYYCARSLARTTAMDYWGEGTLVTVSSASTKGPSVFPLAPSSKSTSGGTAALGCLVKDYFPEPVTVSWNSGALTSGVHTFPAVLQSSGLYSLSSVVTVPSSSLGTQTYICNVNHKPSNTKVDKKVEPKSCDKTHTCPPCPAPELLGGPDVFLFPPKPKDVLYISRTPEVTCVVVDVSHEDPEVKFNWYVDGVEVHNAKTKPREEQYNSTYRVVSVLQVLHADWLNGKEYKCKVSNKALPAPIEKTISKAKGQPREPQVYTLPPSRDELTKNQVSLTCLVKGFYPSDIAVEWESNGQPENNYKTTPPVLDSDGSFFLYSKLTVDKSRWQQGNVFSCSVMHEALHYHVTQKSLSLSP light: not shown | 44
IgG1-F1026 (antibody, EU numbering; copies: 2 + 2) heavy: QVQLQESGPGLVKPSETLSLTCAVSGHSISHDHAWSWVRQPPGEGLEWIGFISYSGITNYNPSLQGRVTISRDNSKNTLYLQMNSLRAEDTAVYYCARSLARTTAMDYWGEGTLVTVSSASTKGPSVFPLAPSSKSTSGGTAALGCLVKDYFPEPVTVSWNSGALTSGVHTFPAVLQSSGLYSLSSVVTVPSSSLGTQTYICNVNHKPSNTKVDKKVEPKSCDKTHTCPPCPAPELLGGPSVFLFPPKPKDTLYISRTPEVTCVVVDVSHEDPEVKFNWYVDGVEVHNAKTKPREEQYNSTYRVVSVLAVLHHDWLNGKEYKCKVSNKALPAPIEKTISKAKGQPREPQVYTLPPSRDELTKNQVSLTCLVKGFYPSDIAVEWESNGQPENNYKTTPPVLDSDGSFFLYSKLTVDKSRWQQGNVFSCSVMHEALHYHVTQKSLSLSP light: not shown | 84
IgG1-F1029 (antibody, EU numbering; copies: 2 + 2) heavy: QVQLQESGPGLVKPSETLSLTCAVSGHSISHDHAWSWVRQPPGEGLEWIGFISYSGITNYNPSLQGRVTISRDNSKNTLYLQMNSLRAEDTAVYYCARSLARTTAMDYWGEGTLVTVSSASTKGPSVFPLAPSSKSTSGGTAALGCLVKDYFPEPVTVSWNSGALTSGVHTFPAVLQSSGLYSLSSVVTVPSSSLGTQTYICNVNHKPSNTKVDKKVEPKSCDKTHTCPPCPAPELLGGPSVFLFPPKPKDVLYISRTPEVTCVVVDVSHEDPEVKFNWYVDGVEVHNAKTKPREEQYNSTYRVVSVLQVLHADWLNGKEYKCKVSNKALPAPEEKTISKAKGQPREPQVYTLPPSRDELTKNQVSLTCLVKGFYPSDIAVEWESNGQPENNYKTTPPVLDSDGSFFLYSKLTVDKSRWQQGNVFSCSVMHEALHYHVTQKSLSLSP light: not shown | 51
IgG1-F1028 (antibody, EU numbering; copies: 2 + 2) heavy: QVQLQESGPGLVKPSETLSLTCAVSGHSISHDHAWSWVRQPPGEGLEWIGFISYSGITNYNPSLQGRVTISRDNSKNTLYLQMNSLRAEDTAVYYCARSLARTTAMDYWGEGTLVTVSSASTKGPSVFPLAPSSKSTSGGTAALGCLVKDYFPEPVTVSWNSGALTSGVHTFPAVLQSSGLYSLSSVVTVPSSSLGTQTYICNVNHKPSNTKVDKKVEPKSCDKTHTCPPCPAPELLAGPDVFLFPPKPKDVLYISRTPEVTCVVVDVSHEDPEVKFNWYVDGVEVHNAKTKPREEQYNSTYRVVSVLQVLHADWLNGKEYKCKVSNKALPAPIEKTISKAKGQPREPQVYTLPPSRDELTKNQVSLTCLVKGFYPSDIAVEWESNGQPENNYKTTPPVLDSDGSFFLYSKLTVDKSRWQQGNVFSCSVMHEALHYHVTQKSLSLSP light: not shown | 46
IgG1-F1021 (antibody, EU numbering; copies: 2 + 2) heavy: QVQLQESGPGLVKPSETLSLTCAVSGHSISHDHAWSWVRQPPGEGLEWIGFISYSGITNYNPSLQGRVTISRDNSKNTLYLQMNSLRAEDTAVYYCARSLARTTAMDYWGEGTLVTVSSASTKGPSVFPLAPSSKSTSGGTAALGCLVKDYFPEPVTVSWNSGALTSGVHTFPAVLQSSGLYSLSSVVTVPSSSLGTQTYICNVNHKPSNTKVDKKVEPKSCDKTHTCPPCPAPELLGGDSVFLFPPKPKDVLYISRTPEVTCVVVDVSHEDPEVKFNWYVDGVEVHNAKTKPREEQYNSTYRVVSVLTVLHQDWLNGKEYKCKVSAKALPAPIEKTISKAKGQPREPQVYTLPPSRDELTKNQVSLTCLVKGFYPSDIAVEWESNGQPENNYKTTPPVLDSDGSFFLYSKLTVDKSRWQQGNVFSCSVMHEALHYHYTQKSLSLSP light: not shown | 330
IgG1-F1027 (antibody, EU numbering; copies: 2 + 2) heavy: QVQLQESGPGLVKPSETLSLTCAVSGHSISHDHAWSWVRQPPGEGLEWIGFISYSGITNYNPSLQGRVTISRDNSKNTLYLQMNSLRAEDTAVYYCARSLARTTAMDYWGEGTLVTVSSASTKGPSVFPLAPSSKSTSGGTAALGCLVKDYFPEPVTVSWNSGALTSGVHTFPAVLQSSGLYSLSSVVTVPSSSLGTQTYICNVNHKPSNTKVDKKVEPKSCDKTHTCPPCPAPELRGGPKVFLFPPKPKDTLYISRTPEVTCVVVDVSHEDPEVKFNWYVDGVEVHNAKTKPREEQYNSTYRVVSVLAVLHHDWLNGKEYKCKVSNKALPAPIEKTISKAKGQPREPQVYTLPPSRDELTKNQVSLTCLVKGFYPSDIAVEWESNGQPENNYKTTPPVLDSDGSFFLYSKLTVDKSRWQQGNVFSCSVMHEALHYHVTQKSLSLSP light: not shown | 86
IgG1-F1020 (antibody, EU numbering; copies: 2 + 2) heavy: QVQLQESGPGLVKPSETLSLTCAVSGHSISHDHAWSWVRQPPGEGLEWIGFISYSGITNYNPSLQGRVTISRDNSKNTLYLQMNSLRAEDTAVYYCARSLARTTAMDYWGEGTLVTVSSASTKGPSVFPLAPSSKSTSGGTAALGCLVKDYFPEPVTVSWNSGALTSGVHTFPAVLQSSGLYSLSSVVTVPSSSLGTQTYICNVNHKPSNTKVDKKVEPKSCDKTHTCPPCPAPELLGGDSVFLFPPKPKDVLYISRTPEVTCVVVDVSHEDPEVKFNWYVDGVEVHNAKTKPREEQYNSTYRVVSVLQVLHADWLNGKEYKCKVSGKALPAPIEKTISKAKGQPREPQVYTLPPSRDELTKNQVSLTCLVKGFYPSDIAVEWESNGQPENNYKTTPPVLDSDGSFFLYSKLTVDKSRWQQGNVFSCSVMHEALHYHYTQKSLSLSP light: not shown | 85

The next binders have a lower Kd than those just listed; values first:

Kd [nM] | Binder
30 | IgG1-F1013 (antibody, EU numbering; copies: 2 + 2) heavy: QVQLQESGPGLVKPSETLSLTCAVSGHSISHDHAWSWVRQPPGEGLEWIGFISYSGITNYNPSLQGRVTISRDNSKNTLYLQMNSLRAEDTAVYYCARSLARTTAMDYWGEGTLVTVSSASTKGPSVFPLAPSSKSTSGGTAALGCLVKDYFPEPVTVSWNSGALTSGVHTFPAVLQSSGLYSLSSVVTVPSSSLGTQTYICNVNHKPSNTKVDKKVEPKSCDKTHTCPPCPAPELLGGPSVFLFPPKPKDVLYISRTPEVTCVVVDVSHEDPEVKFNWYVDGVEVHNAKTKPREEQYNSTYRVVSVLQPLHADWLNGKEYKCKVSNKALPAPIEKTISKAKGQPREPQVYTLPPSRDELTKNQVSLTCLVKGFYPSDIAVEWESNGQPENNYKTTPPVLDSDGSFFLYSKLTVDKSRWQQGNVFSCSVMHEALHYHYTQKSLSLSP light: not shown
36 | IgG1-F1025 (antibody, EU numbering; copies: 2 + 2) heavy: QVQLQESGPGLVKPSETLSLTCAVSGHSISHDHAWSWVRQPPGEGLEWIGFISYSGITNYNPSLQGRVTISRDNSKNTLYLQMNSLRAEDTAVYYCARSLARTTAMDYWGEGTLVTVSSASTKGPSVFPLAPSSKSTSGGTAALGCLVKDYFPEPVTVSWNSGALTSGVHTFPAVLQSSGLYSLSSVVTVPSSSLGTQTYICNVNHKPSNTKVDKKVEPKSCDKTHTCPPCPAPELLGGPDVFLFPPKPKDVLYISRTPEVTCVVVDVSHEDPEVKFNWYVDGVEVHNAKTKPREEQYNSTYRVVSVLQVLHADWLNGKEYKCKVSNDAYPAPIEKTISKAKGQPREPQVYTLPPSRDELTKNQVSLTCLVKGFYPSDIAVEWESNGQPENNYKTTPPVLDSDGSFFLYSKLTVDKSRWQQGNVFSCSVMHEALHYHVTQKSLSLSP light: not shown
40 | IgG1-F1024 (antibody, EU numbering; copies: 2 + 2) heavy: QVQLQESGPGLVKPSETLSLTCAVSGHSISHDHAWSWVRQPPGEGLEWIGFISYSGITNYNPSLQGRVTISRDNSKNTLYLQMNSLRAEDTAVYYCARSLARTTAMDYWGEGTLVTVSSASTKGPSVFPLAPSSKSTSGGTAALGCLVKDYFPEPVTVSWNSGALTSGVHTFPAVLQSSGLYSLSSVVTVPSSSLGTQTYICNVNHKPSNTKVDKKVEPKSCDKTHTCPPCPAPELLGGPSVFLFPPKPKDVLYISRTPEVTCVVVDVSHEDPEVKFNWYVDGVEVHNAKTKPREEQYNSTYRVVSVLQVLHADWLNGKEYKCKVSNDAYPAPIEKTISKAKGQPREPQVYTLPPSRDELTKNQVSLTCLVKGFYPSDIAVEWESNGQPENNYKTTPPVLDSDGSFFLYSKLTVDKSRWQQGNVFSCSVMHEALHYHVTQKSLSLSP light: not shown
3.2 | IgG1-F1018 (antibody, EU numbering; copies: 2 + 2) heavy: QVQLQESGPGLVKPSETLSLTCAVSGHSISHDHAWSWVRQPPGEGLEWIGFISYSGITNYNPSLQGRVTISRDNSKNTLYLQMNSLRAEDTAVYYCARSLARTTAMDYWGEGTLVTVSSASTKGPSVFPLAPSSKSTSGGTAALGCLVKDYFPEPVTVSWNSGALTSGVHTFPAVLQSSGLYSLSSVVTVPSSSLGTQTYICNVNHKPSNTKVDKKVEPKSCDKTHTCPPCPAPELRGGPKVFLFPPKPKDTLYISRTPEVTCVVVDVSHEDPEVKFNWYVDGVEVHEAKTKPREEQYNSTYRVVSVLQPLHADWLNGKEYKCKVSNKALPAPIEKTISKAKGQPREPQVYTLPPSRDELTKNQVSLTCLVKGFYPSDIAVEWESNGQPENNYKTTPPVLDSDGSFFLYSKLTVDKSRWQQGNVFSCSVMHEALHYHVTQKSLSLSP light: not shown
22 | IgG1-F1015 (antibody, EU numbering; copies: 2 + 2) heavy: QVQLQESGPGLVKPSETLSLTCAVSGHSISHDHAWSWVRQPPGEGLEWIGFISYSGITNYNPSLQGRVTISRDNSKNTLYLQMNSLRAEDTAVYYCARSLARTTAMDYWGEGTLVTVSSASTKGPSVFPLAPSSKSTSGGTAALGCLVKDYFPEPVTVSWNSGALTSGVHTFPAVLQSSGLYSLSSVVTVPSSSLGTQTYICNVNHKPSNTKVDKKVEPKSCDKTHTCPPCPAPELRGGPKVFLFPPKPKDTLYISRTPEVTCVVVDVSHEDPEVKFNWYVDGVEVHNAKTKPREEQYNSTYRVVSVLQPLHADWLNGKEYKCKVSNKALPAPIEKTISKAKGQPREPQVYTLPPSRDELTKNQVSLTCLVKGFYPSDIAVEWESNGQPENNYKTTPPVLDSDGSFFLYSKLTVDKSRWQQGNVFSCSVMHEALHYHYTQKSLSLSP light: not shown
3.8 | IgG1-F1016 (antibody, EU numbering; copies: 2 + 2) heavy: QVQLQESGPGLVKPSETLSLTCAVSGHSISHDHAWSWVRQPPGEGLEWIGFISYSGITNYNPSLQGRVTISRDNSKNTLYLQMNSLRAEDTAVYYCARSLARTTAMDYWGEGTLVTVSSASTKGPSVFPLAPSSKSTSGGTAALGCLVKDYFPEPVTVSWNSGALTSGVHTFPAVLQSSGLYSLSSVVTVPSSSLGTQTYICNVNHKPSNTKVDKKVEPKSCDKTHTCPPCPAPELLGGPSVFLFPPKPKDVLYISRTPEVTCVVVDVSHEDPEVKFNWYVDGVEVHEAKTKPREEQYNSTYRVVSVLQPLHADWLNGKEYKCKVSNKALPAPIEKTISKAKGQPREPQVYTLPPSRDELTKNQVSLTCLVKGFYPSDIAVEWESNGQPENNYKTTPPVLDSDGSFFLYSKLTVDKSRWQQGNVFSCSVMHEALHYHVTQKSLSLSP light: not shown
